From PMC8698469, “A Combined Spectroscopic and In Silico Approach to Evaluate the Interaction of Human Frataxin with Mitochondrial Superoxide Dismutase” (Biomedicines, 2021)

Key:
[1] = molecular target: T1, human mitochondrial superoxide dismutase (SOD2), His-tag recombinant protein (human, UniProt P04179 25-222); assay: tryptophan fluorescence quenching (mixture against the sum of the single spectra); both in solution; FXN 1.4 uM, SOD2 1.9 uM (FXN:(SOD2)4 1:0.34), 288 K, mix of 20 mM TRIS-HCl pH 8 and 25 mM HEPES pH 7.0, 50 mM KCl, under nitrogen; settings: both partners purified
T1 construct: Trp residues are printed as W78, W123, W125, W161, W181, W186; also called Mn-SOD; (SOD2)4; source: bought: Technical Novusbio (His-tag recombinant protein)
T1 sequence: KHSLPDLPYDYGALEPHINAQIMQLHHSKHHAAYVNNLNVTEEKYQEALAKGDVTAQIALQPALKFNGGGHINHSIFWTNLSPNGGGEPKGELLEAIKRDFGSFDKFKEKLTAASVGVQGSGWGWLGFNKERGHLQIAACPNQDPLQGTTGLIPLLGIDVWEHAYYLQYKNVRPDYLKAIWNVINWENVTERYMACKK

[2] = molecular target: T1, human mitochondrial superoxide …; assay: SDSL-EPR (EPR spectra of spin-labelled protein, fitted rotational correlation time); both in solution; 10 uM spin-labelled FXN mutant without or with 40 uM SOD2 (FXN:(SOD2)4 1:1; also 1:0.5), room temperature, 18 uL SOD buffer (20 mM Tris HCl pH 8, 20% v/v glycerol) or SOD2 stock with 2 uL FXN stock, under nitrogen flow; settings: both partners purified

B1: human wild-type mature frataxin, FXN(90-210) (domain or fragment, UniProt Q16595 90-210, looked up)
chain: LDETTYERLAEETLDSLAEFFEDLADKPYTFEDYDVSFGSGVLTVKLGGDLGTYVINKQTPNKQIWLSSPSSGPKRYDWTGKNWVYSHDGVSLHELLAAELTKALKTKLDLSSLAYSGKDA
notes: human frataxin, residues 90-210 of the 210 amino acid precursor, from plasmid pET-9b/FXN(90-210); also called WT FXN; source: E. coli BL21 (DE3), purified (DEAE Sepharose ion exchange, SEC on Superdex 200)
- decrease in fluorescence quenching relative to the sum of the individual spectra [1]: 17%

B2: human FXN(90-210) T133C, spin-labelled with M-TETPO (domain or fragment, UniProt Q16595 90-210, looked up)
chain: LDETTYERLAEETLDSLAEFFEDLADKPYTFEDYDVSFGSGVLCVKLGGDLGTYVINKQTPNKQIWLSSPSSGPKRYDWTGKNWVYSHDGVSLHELLAAELTKALKTKLDLSSLAYSGKDA
modifications: M-TETPO nitroxide spin label on cysteine 133
notes: human frataxin, residues 90-210, native residue mutated to cysteine for spin labelling; source: E. coli BL21 (DE3), purified (DEAE Sepharose ion exchange, SEC), labelled with M-TETPO
- ΔτC (τC^+SOD − τC^−SOD) [2]: 0.4 ns

B3: human FXN(90-210) A114C, spin-labelled with M-TETPO (domain or fragment, UniProt Q16595 90-210, looked up)
chain: LDETTYERLAEETLDSLAEFFEDLCDKPYTFEDYDVSFGSGVLTVKLGGDLGTYVINKQTPNKQIWLSSPSSGPKRYDWTGKNWVYSHDGVSLHELLAAELTKALKTKLDLSSLAYSGKDA
modifications: M-TETPO nitroxide spin label on cysteine 114
notes: as for B2
- ΔτC (τC^+SOD − τC^−SOD) [2]: 0.44 ns

B4: human FXN(90-210) A193C, spin-labelled with M-TETPO (domain or fragment, UniProt Q16595 90-210, looked up)
chain: LDETTYERLAEETLDSLAEFFEDLADKPYTFEDYDVSFGSGVLTVKLGGDLGTYVINKQTPNKQIWLSSPSSGPKRYDWTGKNWVYSHDGVSLHELLAAELTKCLKTKLDLSSLAYSGKDA
modifications: M-TETPO nitroxide spin label on cysteine 193
notes: as for B2
- ΔτC (τC^+SOD − τC^−SOD) [2]: 0.41 ns

B5: human FXN(90-210) H183C, spin-labelled with M-TETPO (domain or fragment, UniProt Q16595 90-210, looked up)
chain: LDETTYERLAEETLDSLAEFFEDLADKPYTFEDYDVSFGSGVLTVKLGGDLGTYVINKQTPNKQIWLSSPSSGPKRYDWTGKNWVYSHDGVSLCELLAAELTKALKTKLDLSSLAYSGKDA
modifications: M-TETPO nitroxide spin label on cysteine 183
notes: as for B2
- ΔτC (τC^+SOD − τC^−SOD) [2]: 0.56 ns
